Test results as given in patent publication US20130189255A1, “FUSIONS AND CONJUGATES OF INSULINOTROPIC AGENTS” (GLAXO GROUP LIMITED, priority 2008, published 2013).
Entries after “also recorded” stand apart in the source; their conditions may differ. Like-named read-outs stand apart in the source and are kept apart here.

Assays:
human GLP-1 receptor = biological target: T1, human GLP-1 receptor (Homo sapiens, UniProt P43220); experiment: GLP-1 receptor binding assay (GLP-1R BA), CHO 6CRE GLP1R luciferase reporter cells; format: cell-based
T1 construct: expressed in transfected cells; host or cells: CHO K1 (CHO 6CRE GLP1R)
T1 sequence (P43220 24-463): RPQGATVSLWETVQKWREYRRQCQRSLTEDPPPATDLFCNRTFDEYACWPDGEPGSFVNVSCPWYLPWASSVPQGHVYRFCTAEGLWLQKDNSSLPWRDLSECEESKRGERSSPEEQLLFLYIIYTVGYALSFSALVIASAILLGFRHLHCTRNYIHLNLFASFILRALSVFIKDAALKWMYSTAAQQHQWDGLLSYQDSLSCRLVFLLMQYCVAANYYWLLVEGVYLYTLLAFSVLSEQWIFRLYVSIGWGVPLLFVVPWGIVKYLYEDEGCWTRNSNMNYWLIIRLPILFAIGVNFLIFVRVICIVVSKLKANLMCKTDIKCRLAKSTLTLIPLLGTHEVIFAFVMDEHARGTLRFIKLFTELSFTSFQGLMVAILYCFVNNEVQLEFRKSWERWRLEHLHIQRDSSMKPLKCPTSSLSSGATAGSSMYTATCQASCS
Description: Fusions were buffer exchanged into 100 mM […], 20 mM citrate pH 6.2. […] Suspension culture was maintained for 24 hours. Cells were then diluted into 15 mM HEPES buffer (obtainable from Sigma), containing 2 mM L glutamine (2.5×10^5 cells/ml) and dispensed into 384-well plates containing 10 ul/well of the compound to be assayed. After the addition of assay control, plates were returned to the incubator for 3 h at 37° C. and 5% CO2. After the incubation, steady glo luciferase substrate (obtainable from Promega) was added to the wells as described in the kit and the plates sealed with self-adhesive plate seals (Weber Marking Systems Inc. Cat. No. 607780). Plates were placed in the reader (Viewlux, Perkin Elmer) and pre-incubated for 5 minutes prior to reading the […] and plotting of results. Compound was assayed at a range of concentrations in the presence and absence of 10 uM albumin, allowing a dose response curve to be fitted with and without the albumin.

[1] = In solution state by SEC MALLS; format: physicochemical; conditions: Superdex 200, 20 mM citrate, 0.1M NaCl
Description: The aim of this experiment was to determine the in solution state of DAT0115, DAT0117 and DAT0120 by SEC MALLS. Samples were purified and dialysed into appropriate buffer (PBS) and filtered after dialysis, concentration was determined and adjusted to 1 mg/ml. BSA and HSA were purchased from Sigma and used without further purification. Shimadzu LC-20AD Prominence HPLC system with an autosampler (SIL-20A) and SPD-20A Prominence UV/Vis detector was connected to Wyatt Mini Dawn Treos (MALLS, multi-angle laser light scattering detector) and Wyatt Optilab rEX DRI (differential refractive index) detector. The detectors were connected in the following order—LS—UV—RI. Both RI and LS instruments operated at a wavelength of 488 nm. […] The traces are then analysed using ASTRA software, and the signals are normalised aligned and corrected for band broadening following manufacturer's instructions. […] The dilution that takes place on the column is about 10 fold, so the concentration at which in-solution state is determined is 100 ug/ml, or about 8 uM dAb. […] 16, 1093-1099 (1948)]: The calculations were performed automatically by ASTRA software, resulting in a plot with molar mass determined for eath of the slices [Astra manual]. […]

In the case of “Exendin 4 (G4S linker)3 DOM7h-14 dAb fusion [DAT0115]”, the EC50 (human GLP-1 receptor; read-out: GLP-1R BA (10 uM albumin) EC50 (pM) n = 2, presence of 10 uM albumin) is reported as 35 pM, the EC50 (human GLP-1 receptor; read-out: GLP-1R BA EC50 (pM) n = 3, absence of albumin) is reported as 8.9 pM and the “in-solution state (self association)” value ([1]; pH6.2) is reported as “eluted in a single peak; also recorded: significantly less (and possibly no) self association”. The “Mw determined across the peak (SEC MALLS)” value ([1]; pH6.2, 0.5 ml/min, expected monomer 16.9 kDa) was 17.4 kDa.
